Measured values published in patent US20240400652A1.
Like-named read-outs stand apart in the source and are kept apart here.

Columns and labels:
[1] = biological target: Deglycosylated SARS-CoV-2 RBD (SARS-CoV-2) (UniProt P0DTC2)
[2] = biological target: SARS-CoV-2 Spike protein on pseudotyped virus (SARS-CoV-2) (UniProt P0DTC2); assay: cell-based or functional assay
[3] = biological target: SARS-CoV-2 Spike protein on pseudotyped virus (SARS-CoV-2) (UniProt P0DTC2); assay: cell-based or functional assay; remark: listed apart in the source

Substance “S306 G56A (as printed in Table 5) (antibody)” has a Kd [1] of 0.7 nM, a koff [1] of 0.00024 s⁻¹ and a kon [1] of 340000 M⁻¹ s⁻¹.

With S309 LS (antibody) the IC50, neutralization of SARS-CoV-2pp, DBT-ACE2 cells [2] was 3.9 nM, the maximum neutralization, VSV pseudotype, 293T ACE2 cells [2] was 34% and the maximum neutralization, VSV pseudotype, A549-ACE2-TMPRSS2 clone 5 cells [2] was 65%. For the same substance, the maximum neutralization, VSV pseudotype, A549-ACE2-TMPRSS2 clone 10 cells [2] was 42%, the maximum neutralization, VSV pseudotype, Huh7 cells [2] was 78% and the maximum neutralization, VSV pseudotype, MRC5-ACE2-TMPRSS2 cells [2] was 45%. It also gave a maximum neutralization, VSV pseudotype, Vero E6-TMPRSS2 cells [2] of 96%, a maximum neutralization, VSV pseudotype, Vero E6 cells [2] greater than 99% and an IC50, neutralization of SARS-CoV-2pp, DBT-ACE2 cells [3] of 3.82 nM.

sotrovimab (antibody) gave an EC50, neutralization of pseudotyped virus [2] of 0.0241 µg/mL.
